According to patent US6001604:

Target: SOD-proinsulin hybrid polypeptide expressed by plasmid pBAST-R (SOD-Insulin B chain-Lys-Arg-Insulin A chain hybrid polypeptide) (human)

With trypsin (Sigma) (enzyme) as the substance, how does the human insulin generation after enzymatic cleavage (radioimmunoassay and RP-HPLC) (% of the theoretical yield) read?
The human insulin generation after enzymatic cleavage (radioimmunoassay and RP-HPLC) (% of the theoretical yield) was 80.
